Measured values as given in publication doi:10.1101/216812.

Target: biotinylated, taxol-stabilized microtubules tethered to coverslips (TIRF binding assays)
Assay: TIRF microscopy of single particles

Substance | average residence time [s] | fold change of average residence time against wild-type KKT4 [fold]
549SNAP-6HIS-3FLAG-KKT4, full-length wild-type KKT4 (natural protein) | 5.4 | –
549SNAP-6HIS-3FLAG-KKT4 charge-reversal mutant (R123E, K132E, R154E), full length (natural protein) | – | 2
